According to patent publication US20080206140A1:

Target: Ab126 antibody
Assay: direct competition ELISA: 0.1 µg recombinant PCNA on plate, peptide UMPB6 (0.024-2400 ng/well) mixed with Ab126, anti-rabbit IgG-AP, OD 405 nm

Work on LGIPEQEY [antigenic peptide UMPB6 (equivalent to PCNA amino acids 126-133)] yielded an IC50 of 0.1 µg/mL.
